Where a chain is given by its changes, count along the chain named.
What was measured:
Assay in all cases: cell_activity
[1] = test system: T1, Rec27 WP_021170377.1 (Sporomusa sp.); conditions: HEK293T inversion; background 6.51
T1 sequence: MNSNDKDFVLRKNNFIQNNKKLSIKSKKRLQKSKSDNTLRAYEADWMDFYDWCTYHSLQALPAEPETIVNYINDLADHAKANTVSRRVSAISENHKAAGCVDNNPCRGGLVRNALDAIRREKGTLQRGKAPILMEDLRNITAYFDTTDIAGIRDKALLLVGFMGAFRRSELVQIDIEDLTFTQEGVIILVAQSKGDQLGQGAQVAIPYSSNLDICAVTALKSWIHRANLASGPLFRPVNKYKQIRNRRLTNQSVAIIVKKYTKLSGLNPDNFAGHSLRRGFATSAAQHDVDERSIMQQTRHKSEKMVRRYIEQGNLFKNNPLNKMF

[2] = test system: T2, Rec2 WP_006717173.1 (Aggregatibacter segnis); conditions: HEK293T inversion; background 0.2565; repeat 0.27 vs 0.265
T2 sequence: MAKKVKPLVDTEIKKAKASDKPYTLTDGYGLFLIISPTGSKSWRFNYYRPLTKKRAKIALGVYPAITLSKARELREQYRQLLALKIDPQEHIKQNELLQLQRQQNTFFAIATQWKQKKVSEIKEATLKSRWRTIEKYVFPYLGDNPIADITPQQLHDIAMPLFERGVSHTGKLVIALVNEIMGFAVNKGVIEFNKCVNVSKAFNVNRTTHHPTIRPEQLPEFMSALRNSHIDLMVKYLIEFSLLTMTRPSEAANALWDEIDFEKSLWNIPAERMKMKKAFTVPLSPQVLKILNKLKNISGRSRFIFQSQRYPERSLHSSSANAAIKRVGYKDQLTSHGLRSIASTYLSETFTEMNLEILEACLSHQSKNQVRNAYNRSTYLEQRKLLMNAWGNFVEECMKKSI

[3] = test system: T3, Rec4 WP_006719234.1 (Aggregatibacter segnis); conditions: HEK293T inversion; background 0.2565
T3 sequence: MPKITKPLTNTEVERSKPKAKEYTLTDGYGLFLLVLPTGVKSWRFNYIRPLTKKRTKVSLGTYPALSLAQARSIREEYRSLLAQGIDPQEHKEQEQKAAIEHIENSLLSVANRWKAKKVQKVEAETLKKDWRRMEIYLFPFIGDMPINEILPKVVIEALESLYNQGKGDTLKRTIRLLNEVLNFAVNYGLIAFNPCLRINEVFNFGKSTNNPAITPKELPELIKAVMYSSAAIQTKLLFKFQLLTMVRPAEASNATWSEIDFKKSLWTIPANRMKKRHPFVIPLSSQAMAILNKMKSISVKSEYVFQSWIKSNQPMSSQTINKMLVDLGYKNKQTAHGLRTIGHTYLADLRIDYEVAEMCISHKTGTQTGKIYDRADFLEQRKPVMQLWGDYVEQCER

[4] = test system: T4, Rec7 WP_005715799.1 (Aggregatibacter segnis); conditions: HEK293T inversion; background 0.2565
T4 sequence: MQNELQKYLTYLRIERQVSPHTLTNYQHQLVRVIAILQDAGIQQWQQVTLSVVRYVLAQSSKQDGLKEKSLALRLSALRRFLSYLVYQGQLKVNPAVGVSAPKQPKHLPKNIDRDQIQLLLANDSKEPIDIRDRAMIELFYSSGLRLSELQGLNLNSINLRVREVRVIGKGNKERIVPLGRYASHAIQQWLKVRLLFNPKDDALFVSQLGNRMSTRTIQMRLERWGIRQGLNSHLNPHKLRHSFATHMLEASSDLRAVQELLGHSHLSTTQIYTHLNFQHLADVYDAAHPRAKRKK

[5] = test system: T5, Rec6 WP_006717195.1 (Aggregatibacter segnis); conditions: HEK293T inversion; background 0.2565
T5 sequence: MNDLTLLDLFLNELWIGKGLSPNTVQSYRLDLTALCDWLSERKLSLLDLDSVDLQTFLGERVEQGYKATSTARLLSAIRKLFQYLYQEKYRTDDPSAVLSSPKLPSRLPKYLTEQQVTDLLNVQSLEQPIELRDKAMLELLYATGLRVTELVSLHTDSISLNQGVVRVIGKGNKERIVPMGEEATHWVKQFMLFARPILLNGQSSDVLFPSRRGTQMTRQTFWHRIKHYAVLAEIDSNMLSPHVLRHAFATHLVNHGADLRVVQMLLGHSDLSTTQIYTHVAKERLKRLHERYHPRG

[6] = test system: T6, Rec5 WP_109859198.1 (Aggregatibacter segnis); conditions: HEK293T inversion; background 0.265
T6 sequence: T5 sequence with S40G, N201D

[7] = test system: T7, Rec3 WP_006718580.1 (Aggregatibacter segnis); conditions: HEK293T inversion; background 0.2565
T7 sequence: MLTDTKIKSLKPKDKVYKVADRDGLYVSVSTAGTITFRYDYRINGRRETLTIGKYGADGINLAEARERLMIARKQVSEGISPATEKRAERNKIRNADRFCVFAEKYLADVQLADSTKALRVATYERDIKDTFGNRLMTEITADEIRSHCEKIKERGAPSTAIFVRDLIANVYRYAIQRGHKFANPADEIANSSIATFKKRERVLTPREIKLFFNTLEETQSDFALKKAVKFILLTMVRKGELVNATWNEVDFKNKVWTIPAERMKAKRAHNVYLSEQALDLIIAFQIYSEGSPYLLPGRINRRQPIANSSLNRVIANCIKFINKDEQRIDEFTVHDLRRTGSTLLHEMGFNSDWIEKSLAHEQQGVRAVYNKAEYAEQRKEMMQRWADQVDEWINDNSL

[8] = test system: T8, Rec12 WP_038150898.1 (Veillonella montpellierensis); conditions: HEK293T inversion; background 0.07465
T8 sequence: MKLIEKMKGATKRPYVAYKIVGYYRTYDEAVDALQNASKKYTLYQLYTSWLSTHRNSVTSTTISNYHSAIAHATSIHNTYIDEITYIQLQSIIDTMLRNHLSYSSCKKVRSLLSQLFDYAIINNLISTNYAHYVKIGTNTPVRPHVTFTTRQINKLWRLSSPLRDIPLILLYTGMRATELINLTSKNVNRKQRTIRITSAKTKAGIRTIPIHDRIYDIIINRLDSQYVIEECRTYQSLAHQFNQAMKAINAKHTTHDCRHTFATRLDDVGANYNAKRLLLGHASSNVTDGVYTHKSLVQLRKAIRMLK

[9] = test system: T9, Rec11 WP_038150996.1 (Veillonella montpellierensis); conditions: HEK293T inversion; background 0.07465
T9 sequence: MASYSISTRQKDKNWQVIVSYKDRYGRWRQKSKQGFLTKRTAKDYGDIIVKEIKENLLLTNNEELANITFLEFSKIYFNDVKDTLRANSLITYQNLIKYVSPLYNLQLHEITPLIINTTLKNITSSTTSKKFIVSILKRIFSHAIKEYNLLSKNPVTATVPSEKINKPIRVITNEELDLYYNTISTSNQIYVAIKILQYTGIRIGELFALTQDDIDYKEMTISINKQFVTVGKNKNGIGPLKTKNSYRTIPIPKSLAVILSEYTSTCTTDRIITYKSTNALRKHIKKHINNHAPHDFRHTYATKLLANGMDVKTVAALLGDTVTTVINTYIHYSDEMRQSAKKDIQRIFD

[10] = test system: T10, Rec13 WP_126045042.1 (Candidatus Aquarickettsia); conditions: HEK293T inversion; background 5.795
T10 sequence: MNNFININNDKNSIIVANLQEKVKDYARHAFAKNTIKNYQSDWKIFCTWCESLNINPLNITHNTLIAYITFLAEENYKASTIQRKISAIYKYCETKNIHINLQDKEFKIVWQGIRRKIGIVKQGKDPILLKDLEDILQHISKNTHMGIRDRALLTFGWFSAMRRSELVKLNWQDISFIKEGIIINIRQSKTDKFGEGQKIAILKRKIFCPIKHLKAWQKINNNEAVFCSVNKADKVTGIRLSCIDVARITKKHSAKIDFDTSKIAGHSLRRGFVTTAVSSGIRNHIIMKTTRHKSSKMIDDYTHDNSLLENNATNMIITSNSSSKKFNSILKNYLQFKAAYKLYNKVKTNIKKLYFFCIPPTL

[11] = test system: T11, Rec23 WP_047824597.1 (Croceicoccus naphthovorans); conditions: HEK293T inversion; background 0.81
T11 sequence: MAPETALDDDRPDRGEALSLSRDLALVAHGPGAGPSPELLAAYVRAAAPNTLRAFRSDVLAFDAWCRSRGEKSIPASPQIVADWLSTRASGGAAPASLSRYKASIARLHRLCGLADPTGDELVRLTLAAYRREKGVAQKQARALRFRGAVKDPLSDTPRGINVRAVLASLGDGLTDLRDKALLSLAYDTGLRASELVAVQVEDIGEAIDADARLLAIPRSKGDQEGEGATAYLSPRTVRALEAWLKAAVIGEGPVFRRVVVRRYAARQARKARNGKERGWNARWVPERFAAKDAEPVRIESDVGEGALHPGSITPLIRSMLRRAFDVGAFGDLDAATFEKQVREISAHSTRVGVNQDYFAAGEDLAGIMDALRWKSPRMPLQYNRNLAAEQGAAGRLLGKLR

[12] = test system: T12, Rec8 WP_017740000.1 (Scytonema hofmannii); conditions: HEK293T inversion; background 0.264
T12 sequence: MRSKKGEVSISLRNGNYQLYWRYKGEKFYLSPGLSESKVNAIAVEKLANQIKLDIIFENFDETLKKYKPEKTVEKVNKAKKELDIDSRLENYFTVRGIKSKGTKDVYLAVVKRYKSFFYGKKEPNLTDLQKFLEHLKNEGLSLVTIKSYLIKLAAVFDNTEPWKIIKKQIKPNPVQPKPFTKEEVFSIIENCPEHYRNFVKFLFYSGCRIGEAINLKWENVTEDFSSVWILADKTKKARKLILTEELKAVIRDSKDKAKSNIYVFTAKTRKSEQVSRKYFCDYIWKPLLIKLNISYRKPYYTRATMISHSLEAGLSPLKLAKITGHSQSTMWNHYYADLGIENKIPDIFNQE

[13] = test system: T13, Rec10 WP_017746151.1 (Scytonema hofmannii); conditions: HEK293T inversion; background 0.264
T13 sequence: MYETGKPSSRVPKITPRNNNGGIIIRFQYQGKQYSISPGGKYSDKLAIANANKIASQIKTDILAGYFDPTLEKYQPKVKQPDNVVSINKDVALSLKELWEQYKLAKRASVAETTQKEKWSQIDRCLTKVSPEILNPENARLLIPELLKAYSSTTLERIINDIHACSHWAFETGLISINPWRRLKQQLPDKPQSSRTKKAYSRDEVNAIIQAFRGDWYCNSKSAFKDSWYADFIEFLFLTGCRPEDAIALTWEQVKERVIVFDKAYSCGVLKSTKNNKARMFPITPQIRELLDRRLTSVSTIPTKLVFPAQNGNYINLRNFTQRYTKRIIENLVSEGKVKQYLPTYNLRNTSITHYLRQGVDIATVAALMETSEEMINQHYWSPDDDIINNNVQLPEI

[14] = test system: T14, Rec9 WP_017744257.1 (Scytonema hofmannii); conditions: HEK293T inversion; background 0.264
T14 sequence: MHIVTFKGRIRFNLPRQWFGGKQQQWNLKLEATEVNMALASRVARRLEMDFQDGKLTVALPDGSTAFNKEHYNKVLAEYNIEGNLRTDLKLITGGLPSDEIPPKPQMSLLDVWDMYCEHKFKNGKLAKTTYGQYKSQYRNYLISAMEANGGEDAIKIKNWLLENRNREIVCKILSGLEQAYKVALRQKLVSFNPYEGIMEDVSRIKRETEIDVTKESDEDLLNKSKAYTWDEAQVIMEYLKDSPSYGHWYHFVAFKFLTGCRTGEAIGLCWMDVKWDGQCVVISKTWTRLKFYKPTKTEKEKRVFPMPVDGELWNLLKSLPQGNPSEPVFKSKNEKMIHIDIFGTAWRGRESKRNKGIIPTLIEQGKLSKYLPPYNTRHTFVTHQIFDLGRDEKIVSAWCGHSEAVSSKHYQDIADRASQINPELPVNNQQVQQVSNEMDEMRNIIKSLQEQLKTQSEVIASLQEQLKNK

**Q.** With “TAACTAATGATANNNNNNNNNTATCACTAGTTG (double strand) [Rec27 natural site]” as the sequence, how does the activity [1] read?
**A.** 62.7 % GFP+

**Q.** Which results are given for “AATAAAGGGAATNNNNNNNNATTCCCTTTATT (double strand) [Rec2-7 natural site]”?
**A.** activity [2]: 0.133 % GFP+; activity [3]: 0.134 % GFP+; activity [4]: 0.108 % GFP+; activity [5]: 0.135 % GFP+; activity [6]: 0.195 % GFP+; activity [7]: 0.096 % GFP+

**Q.** What does the source list for “CACTGATATATANNNNNNNTATATATCAGTG (double strand) [Rec11-12 natural site]”?
**A.** activity [8]: 0.031 % GFP+; activity [9]: 0.0237 % GFP+

**Q.** Which activity [10] does the source give for “TAATGTTCTATANNNNNNNNTATAAAACACTA (double strand) [Rec13 natural site]” here?
**A.** 4.46 % GFP+

**Q.** How did the activity [11] turn out when “GGACATGTGATANNNNNNNNTATCACATGTTG (double strand) [Rec23 natural site]” was run?
**A.** 43.3 % GFP+

**Q.** For “CAATTTTTGAAANNNNNNNTTTCAAAAATTG (double strand) [Rec8-10 natural site]”, which activity [12] is on record?
**A.** 0.165 % GFP+

**Q.** And the activity [13]?
**A.** 0.168 % GFP+

**Q.** What about the activity [14] of the same sequence?
**A.** 0.133 % GFP+

From US20220396813
